Assay results from paper PMC5462994.
pKd: −log10 of the molar value.

Columns and labels:
[1] = biological target: Recombinant M.tb H37Rv GAPDH, wild type (Mycobacterium tuberculosis H37Rv) (UniProt P9WN83); experiment: ELISA; solid phase binding assay: 2 ug/well GAPDH coated on polystyrene wells in PBS pH 7.4; 7.5-1,000 nM biotinylated Lf in PBS with 1% fish skin gelatin, 25°C, 2 h; detected with anti-biotin; one-site specific binding fit
[2] = biological target: Transferrin (Homo sapiens) (UniProt P02787); conditions: cited from earlier work
Chain of UniProt P02787 (P02787 20-698): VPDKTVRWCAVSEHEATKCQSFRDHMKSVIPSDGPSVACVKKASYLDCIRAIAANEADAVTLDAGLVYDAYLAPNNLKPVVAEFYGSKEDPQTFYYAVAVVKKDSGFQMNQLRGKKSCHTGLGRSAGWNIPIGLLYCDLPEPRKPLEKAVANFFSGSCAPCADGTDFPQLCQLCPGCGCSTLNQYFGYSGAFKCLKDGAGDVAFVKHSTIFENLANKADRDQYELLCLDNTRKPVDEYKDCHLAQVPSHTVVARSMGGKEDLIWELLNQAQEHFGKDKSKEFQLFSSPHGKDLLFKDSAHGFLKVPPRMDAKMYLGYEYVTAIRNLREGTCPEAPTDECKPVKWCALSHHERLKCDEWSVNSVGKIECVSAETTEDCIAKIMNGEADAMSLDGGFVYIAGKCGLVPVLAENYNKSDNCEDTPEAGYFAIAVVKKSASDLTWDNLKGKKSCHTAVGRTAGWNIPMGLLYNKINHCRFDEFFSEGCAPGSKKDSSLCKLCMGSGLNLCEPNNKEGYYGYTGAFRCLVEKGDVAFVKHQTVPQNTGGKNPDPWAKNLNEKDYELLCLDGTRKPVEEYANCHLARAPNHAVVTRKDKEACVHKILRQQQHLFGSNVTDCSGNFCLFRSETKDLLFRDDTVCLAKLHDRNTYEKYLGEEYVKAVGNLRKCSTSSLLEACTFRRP

Chain of GAPDH (P9WN83 whole entry): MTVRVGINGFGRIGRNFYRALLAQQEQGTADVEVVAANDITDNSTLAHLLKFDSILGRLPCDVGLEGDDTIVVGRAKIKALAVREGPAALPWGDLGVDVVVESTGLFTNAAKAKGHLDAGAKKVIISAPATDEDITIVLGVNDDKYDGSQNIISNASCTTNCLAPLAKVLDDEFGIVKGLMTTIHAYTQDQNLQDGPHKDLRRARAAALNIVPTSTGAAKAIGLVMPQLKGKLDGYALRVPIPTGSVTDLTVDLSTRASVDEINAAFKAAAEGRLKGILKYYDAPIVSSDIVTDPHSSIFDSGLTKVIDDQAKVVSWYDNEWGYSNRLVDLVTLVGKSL

Row | Substance | pKd [1] | pKd [2]
1 | Biotinylated human lactoferrin (natural protein) | 7.50 | 
2 | GAPDH (from UniProt P9WN83) |  | 6.80
